Results taken from patent US20110300138A1 (published 2011).
Where two headings read alike, the source gives them in different places. Blank lines part the entries; values can stand above or below the substance they belong to.

What was measured:
Assay in all cases: cell-based or functional assay
[1] = target: wild type TSHR expressed in CHO cells (human) (UniProt P16473)
[2] = target: TSHR with Phe130 mutated to Ala, expressed in CHO cells (human) (UniProt P16473)
[3] = target: wild type TSHR expressed in CHO cells (human) (UniProt P16473); remark: listed apart in the source
[4] = target: TSHR with Phe134 mutated to Ala, expressed in CHO cells (human) (UniProt P16473)
[5] = target: wild type TSHR expressed in CHO cells (human) (UniProt P16473); remark: listed apart in the source
[6] = target: wild type TSHR (human TSH receptor) expressed in CHO cells (human) (UniProt P16473)
[7] = target: TSHR with Ile60 mutated to Ala, expressed in CHO cells (human) (UniProt P16473)
[8] = target: TSHR with Ser281 mutated to Ala, expressed in CHO cells (human) (UniProt P16473)
[9] = target: TSHR with Glu178 mutated to Ala expressed in CHO cells (human) (UniProt P16473)
[10] = target: TSHR with Glu107 mutated to Ala expressed in CHO cells (human) (UniProt P16473)
[11] = target: TSHR with Lys183 mutated to Asp expressed in CHO cells (human) (UniProt P16473)
[12] = target: TSHR with Tyr82 mutated to Ala expressed in CHO cells (human) (UniProt P16473)
[13] = target: TSHR with Glu61 mutated to Ala, expressed in CHO cells (human) (UniProt P16473)
[14] = target: human TSH receptor (full length, wild type) expressed on CHO cells (human) (UniProt P16473)

- % inhibition of TSH stimulation; 5B3 10 µg/mL [1]: 2%
- % inhibition of TSH stimulation; 5B3 100 µg/mL [1]: 0%
- Cyclic AMP produced; 5B3 10 µg/mL + TSH 3 ng/mL [1]: 78.2 pmol/mL
- Cyclic AMP produced; 5B3 100 µg/mL + TSH 3 ng/mL [1]: 86.9 pmol/mL
- % inhibition of TSH stimulation; 5B3 10 µg/mL [2]: 8%
- % inhibition of TSH stimulation; 5B3 100 µg/mL [2]: 6%
- Cyclic AMP produced; 5B3 10 µg/mL + TSH 3 ng/mL [2]: 111 pmol/mL
- Cyclic AMP produced; 5B3 100 µg/mL + TSH 3 ng/mL [2]: 114 pmol/mL
- Mutated/wild type (%) of cyclic AMP produced; 5B3 10 µg/mL + TSH 3 ng/mL [2]: 142%
- Mutated/wild type (%) of cyclic AMP produced; 5B3 100 µg/mL + TSH 3 ng/mL [2]: 131%
- % inhibition of TSH stimulation; 5B3 10 µg/mL [3]: 0%
- Cyclic AMP produced; 5B3 10 µg/mL + TSH 3 ng/mL [3]: 131 pmol/mL
- Cyclic AMP produced; 5B3 100 µg/mL + TSH 3 ng/mL [3]: 112 pmol/mL
- % inhibition of TSH stimulation; 5B3 10 µg/mL [4]: 9%
- % inhibition of TSH stimulation; 5B3 100 µg/mL [4]: 0%
- Cyclic AMP produced; 5B3 10 µg/mL + TSH 3 ng/mL [4]: 101 pmol/mL
- Cyclic AMP produced; 5B3 100 µg/mL + TSH 3 ng/mL [4]: 116 pmol/mL
- Mutated/wild type (%) of cyclic AMP produced; 5B3 10 µg/mL + TSH 3 ng/mL [4]: 77%
- Mutated/wild type (%) of cyclic AMP produced; 5B3 100 µg/mL + TSH 3 ng/mL [4]: 103%
- % inhibition of TSH stimulation; 5B3 10 µg/mL [5]: 0%
- % inhibition of TSH stimulation; 5B3 10 µg/mL; Exp 1 [5]: 0%
- % inhibition of TSH stimulation; 5B3 10 µg/mL; Exp 2 [5]: 0%
- % inhibition of TSH stimulation; 5B3 10 µg/mL; Experiment 1 [5]: 0%
- % inhibition of TSH stimulation; 5B3 10 µg/mL; Experiment 2 [5]: 0%
- % inhibition of TSH stimulation; 5B3 100 µg/mL [5]: 0%
- % inhibition of TSH stimulation; 5B3 100 µg/mL; Exp 1 [5]: 0%
- % inhibition of TSH stimulation; 5B3 100 µg/mL; Exp 2 [5]: 0%
- % inhibition of TSH stimulation; 5B3 100 µg/mL; Experiment 1 [5]: 5%
- % inhibition of TSH stimulation; 5B3 100 µg/mL; Experiment 2 [5]: 0%
- Cyclic AMP produced; 5B3 10 µg/mL + TSH 3 ng/mL [5]: 85.3 pmol/mL
- Cyclic AMP produced; 5B3 10 µg/mL + TSH 3 ng/mL; Exp 1 [5]: 65.7 pmol/mL
- Cyclic AMP produced; 5B3 10 µg/mL + TSH 3 ng/mL; Exp 2 [5]: 100 pmol/mL
- Cyclic AMP produced; 5B3 10 µg/mL + TSH 3 ng/mL; Experiment 1 [5]: 163 pmol/mL
- Cyclic AMP produced; 5B3 10 µg/mL + TSH 3 ng/mL; Experiment 2 [5]: 73.7 pmol/mL
- Cyclic AMP produced; 5B3 100 µg/mL + TSH 3 ng/mL [5]: 81.6 pmol/mL
- Cyclic AMP produced; 5B3 100 µg/mL + TSH 3 ng/mL; Exp 1 [5]: 65.5 pmol/mL
- Cyclic AMP produced; 5B3 100 µg/mL + TSH 3 ng/mL; Exp 2 [5]: 98.1 pmol/mL
- Cyclic AMP produced; 5B3 100 µg/mL + TSH 3 ng/mL; Experiment 1 [5]: 146 pmol/mL
- Cyclic AMP produced; 5B3 100 µg/mL + TSH 3 ng/mL; Experiment 2 [5]: 68.9 pmol/mL
- % inhibition of TSH stimulation; 5B3 10 µg/mL ([5]; record 2): 0%
- % inhibition of TSH stimulation; 5B3 10 µg/mL; Experiment 1 ([5]; record 2): 4%
- % inhibition of TSH stimulation; 5B3 10 µg/mL; Experiment 2 ([5]; record 2): 0%
- % inhibition of TSH stimulation; 5B3 100 µg/mL ([5]; record 2): 0%
- % inhibition of TSH stimulation; 5B3 100 µg/mL; Experiment 1 ([5]; record 2): 0%
- % inhibition of TSH stimulation; 5B3 100 µg/mL; Experiment 2 ([5]; record 2): 0%
- Cyclic AMP produced; 5B3 10 µg/mL + TSH 3 ng/mL ([5]; record 2): 93.7 pmol/mL
- Cyclic AMP produced; 5B3 100 µg/mL + TSH 3 ng/mL ([5]; record 2): 109 pmol/mL
- % inhibition of TSH stimulation; 5B3 10 µg/mL [6]: 1%
- % inhibition of TSH stimulation; 5B3 10 µg/mL; Experiment 1 [6]: 0%
- % inhibition of TSH stimulation; 5B3 10 µg/mL; Experiment 2 [6]: 0%
- % inhibition of TSH stimulation; 5B3 100 µg/mL [6]: 0%
- % inhibition of TSH stimulation; 5B3 100 µg/mL; Experiment 1 [6]: 2%
- % inhibition of TSH stimulation; 5B3 100 µg/mL; Experiment 2 [6]: 0%
- % inhibition of TSH stimulation; 5B3 10 µg/mL; Experiment 1 [7]: 0%
- % inhibition of TSH stimulation; 5B3 10 µg/mL; Experiment 2 [7]: 17%
- % inhibition of TSH stimulation; 5B3 100 µg/mL; Experiment 1 [7]: 14%
- % inhibition of TSH stimulation; 5B3 100 µg/mL; Experiment 2 [7]: 0%
- Mutated/wild type (%) of cyclic AMP produced; 5B3 10 µg/mL + TSH 3 ng/mL; Experiment 1 [7]: 58%
- Mutated/wild type (%) of cyclic AMP produced; 5B3 10 µg/mL + TSH 3 ng/mL; Experiment 2 [7]: 53%
- Mutated/wild type (%) of cyclic AMP produced; 5B3 100 µg/mL + TSH 3 ng/mL; Experiment 1 [7]: 50%
- Mutated/wild type (%) of cyclic AMP produced; 5B3 100 µg/mL + TSH 3 ng/mL; Experiment 2 [7]: 62%
- % inhibition of TSH stimulation; 5B3 10 µg/mL; Experiment 1 [8]: 19%
- % inhibition of TSH stimulation; 5B3 10 µg/mL; Experiment 2 [8]: 4%
- % inhibition of TSH stimulation; 5B3 100 µg/mL; Experiment 1 [8]: 11%
- % inhibition of TSH stimulation; 5B3 100 µg/mL; Experiment 2 [8]: 0%
- Mutated/wild type (%) of cyclic AMP produced; test sample 5B3 10 µg/mL + TSH (3 ng/mL); Experiment 1 [8]: 67%
- Mutated/wild type (%) of cyclic AMP produced; test sample 5B3 10 µg/mL + TSH (3 ng/mL); Experiment 2 [8]: 80%
- Mutated/wild type (%) of cyclic AMP produced; test sample 5B3 100 µg/mL + TSH (3 ng/mL); Experiment 1 [8]: 71%
- Mutated/wild type (%) of cyclic AMP produced; test sample 5B3 100 µg/mL + TSH (3 ng/mL); Experiment 2 [8]: 87%
- % inhibition of TSH stimulation; 5B3 10 µg/mL; Exp 1 [9]: 0%
- % inhibition of TSH stimulation; 5B3 10 µg/mL; Exp 2 [9]: 0%
- % inhibition of TSH stimulation; 5B3 100 µg/mL; Exp 1 [9]: 0%
- % inhibition of TSH stimulation; 5B3 100 µg/mL; Exp 2 [9]: 3%
- Cyclic AMP produced; 5B3 10 µg/mL + TSH 3 ng/mL; Exp 1 [9]: 57.6 pmol/mL
- Cyclic AMP produced; 5B3 10 µg/mL + TSH 3 ng/mL; Exp 2 [9]: 55 pmol/mL
- Cyclic AMP produced; 5B3 100 µg/mL + TSH 3 ng/mL; Exp 1 [9]: 57 pmol/mL
- Cyclic AMP produced; 5B3 100 µg/mL + TSH 3 ng/mL; Exp 2 [9]: 45 pmol/mL
- Mutated/wild type (%) of cyclic AMP produced; 5B3 10 µg/mL + TSH 3 ng/mL; Exp 1 [9]: 88%
- Mutated/wild type (%) of cyclic AMP produced; 5B3 10 µg/mL + TSH 3 ng/mL; Exp 2 [9]: 55%
- Mutated/wild type (%) of cyclic AMP produced; 5B3 100 µg/mL + TSH 3 ng/mL; Exp 1 [9]: 87%
- Mutated/wild type (%) of cyclic AMP produced; 5B3 100 µg/mL + TSH 3 ng/mL; Exp 2 [9]: 46%
- % inhibition of TSH stimulation; 5B3 10 µg/mL [10]: 15%
- % inhibition of TSH stimulation; 5B3 100 µg/mL [10]: 17%
- Cyclic AMP produced; 5B3 10 µg/mL + TSH 3 ng/mL [10]: 70.9 pmol/mL
- Cyclic AMP produced; 5B3 100 µg/mL + TSH 3 ng/mL [10]: 66.8 pmol/mL
- Mutated/wild type (%) of cyclic AMP produced; 5B3 10 µg/mL + TSH 3 ng/mL [10]: 83%
- Mutated/wild type (%) of cyclic AMP produced; 5B3 100 µg/mL + TSH 3 ng/mL [10]: 82%
- % inhibition of TSH stimulation; 5B3 10 µg/mL [11]: 11%
- % inhibition of TSH stimulation; 5B3 100 µg/mL [11]: 0%
- Cyclic AMP produced; 5B3 10 µg/mL + TSH 3 ng/mL [11]: 105 pmol/mL
- Cyclic AMP produced; 5B3 100 µg/mL + TSH 3 ng/mL [11]: 128 pmol/mL
- Mutated/wild type (%) of cyclic AMP produced; 5B3 10 µg/mL + TSH 3 ng/mL [11]: 112%
- Mutated/wild type (%) of cyclic AMP produced; 5B3 100 µg/mL + TSH 3 ng/mL [11]: 117%
- % inhibition of TSH stimulation; 5B3 10 µg/mL; Experiment 1 [12]: 16%
- % inhibition of TSH stimulation; 5B3 10 µg/mL; Experiment 2 [12]: 4%
- % inhibition of TSH stimulation; 5B3 100 µg/mL; Experiment 1 [12]: 16%
- % inhibition of TSH stimulation; 5B3 100 µg/mL; Experiment 2 [12]: 8%
- Cyclic AMP produced; 5B3 10 µg/mL + TSH 3 ng/mL; Experiment 1 [12]: 139 pmol/mL
- Cyclic AMP produced; 5B3 10 µg/mL + TSH 3 ng/mL; Experiment 2 [12]: 71.9 pmol/mL
- Cyclic AMP produced; 5B3 100 µg/mL + TSH 3 ng/mL; Experiment 1 [12]: 139 pmol/mL
- Cyclic AMP produced; 5B3 100 µg/mL + TSH 3 ng/mL; Experiment 2 [12]: 68.5 pmol/mL
- Mutated/wild type (%) of cyclic AMP produced; 5B3 10 µg/mL + TSH 3 ng/mL; Experiment 1 [12]: 85%
- Mutated/wild type (%) of cyclic AMP produced; 5B3 10 µg/mL + TSH 3 ng/mL; Experiment 2 [12]: 96%
- Mutated/wild type (%) of cyclic AMP produced; 5B3 100 µg/mL + TSH 3 ng/mL; Experiment 1 [12]: 95%
- Mutated/wild type (%) of cyclic AMP produced; 5B3 100 µg/mL + TSH 3 ng/mL; Experiment 2 [12]: 99%
- % inhibition of TSH stimulation; 5B3 10 µg/mL [13]: 0%
- % inhibition of TSH stimulation; 5B3 100 µg/mL [13]: 9%
- Mutated/wild type (%) of cyclic AMP produced; 5B3 10 µg/mL + TSH 3 ng/mL [13]: 68%
- Mutated/wild type (%) of cyclic AMP produced; 5B3 100 µg/mL + TSH 3 ng/mL [13]: 55%
Substance: 5B3 (human monoclonal antibody to GAD, negative control for K1-70)

- Cyclic AMP concentration in hypotonic medium; 100 ng/mL hTSH alone [14]: 56.8 pmol/mL
- Cyclic AMP concentration in isotonic medium; 100 ng/mL hTSH alone [14]: 42.3 pmol/mL
Substance: native human TSH (from UniProt P01215 25-116; P01222 21-132) (ligand)
